Experimental data from PMC7515732 (Nucleic Acids Research, 2020).

Columns and labels:
[1] = target: T1, RXRA ΔAB;RARA ΔAB (Mus musculus;Mus musculus, UniProt P28700;P11416 135-467;84-462, |); test: FRET titration
T1 sequence 1: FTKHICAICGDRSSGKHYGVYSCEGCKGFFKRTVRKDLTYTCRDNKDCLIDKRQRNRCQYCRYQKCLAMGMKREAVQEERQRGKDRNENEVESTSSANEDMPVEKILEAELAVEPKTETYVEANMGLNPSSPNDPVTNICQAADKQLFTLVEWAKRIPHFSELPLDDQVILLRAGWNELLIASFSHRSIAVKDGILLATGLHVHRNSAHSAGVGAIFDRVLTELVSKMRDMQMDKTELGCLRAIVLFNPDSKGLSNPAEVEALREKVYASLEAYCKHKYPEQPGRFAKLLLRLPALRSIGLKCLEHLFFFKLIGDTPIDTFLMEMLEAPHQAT
T1 sequence 2: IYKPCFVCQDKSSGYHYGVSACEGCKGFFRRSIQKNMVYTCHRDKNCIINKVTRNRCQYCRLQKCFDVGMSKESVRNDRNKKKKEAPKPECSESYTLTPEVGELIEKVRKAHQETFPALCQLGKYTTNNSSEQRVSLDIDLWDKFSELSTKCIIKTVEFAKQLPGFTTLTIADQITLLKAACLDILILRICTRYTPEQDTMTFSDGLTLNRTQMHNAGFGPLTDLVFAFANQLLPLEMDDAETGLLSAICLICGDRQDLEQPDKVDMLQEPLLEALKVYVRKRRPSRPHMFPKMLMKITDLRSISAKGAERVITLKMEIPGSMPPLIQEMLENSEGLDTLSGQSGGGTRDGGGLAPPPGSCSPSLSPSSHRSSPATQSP

[2] = target: RXRA DBD;RARA DBD (Homo sapiens;Homo sapiens, UniProt P19793;P10276 130-212;82-167, |); test: X-ray crystallography
[3] = target: T2, HsRARA DBD (82–167) (human, UniProt P10276 82-167); test: crystal structure
T2 sequence (looked up): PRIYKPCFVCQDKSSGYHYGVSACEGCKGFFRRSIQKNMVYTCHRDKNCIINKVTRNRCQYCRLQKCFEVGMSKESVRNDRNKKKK

[4] = target: RXRA DBD (Homo sapiens, UniProt P19793 130-212); test: X-ray crystallography
[5] = target: T3, RXRA ΔAB;RARA ΔABF (Mus musculus;Mus musculus, UniProt P28700;P11416 135-467;84-421, |); test: SEC-SAXS/RALLS
T3 sequence 1: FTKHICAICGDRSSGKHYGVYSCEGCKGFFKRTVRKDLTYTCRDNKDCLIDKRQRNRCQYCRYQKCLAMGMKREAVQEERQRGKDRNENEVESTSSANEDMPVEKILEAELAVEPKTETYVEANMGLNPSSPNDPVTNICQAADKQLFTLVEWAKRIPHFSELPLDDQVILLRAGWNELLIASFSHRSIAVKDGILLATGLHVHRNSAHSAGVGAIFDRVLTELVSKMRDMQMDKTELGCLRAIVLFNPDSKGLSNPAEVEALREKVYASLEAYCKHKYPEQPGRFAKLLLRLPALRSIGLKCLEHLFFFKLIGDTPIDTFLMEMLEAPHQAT
T3 sequence 2: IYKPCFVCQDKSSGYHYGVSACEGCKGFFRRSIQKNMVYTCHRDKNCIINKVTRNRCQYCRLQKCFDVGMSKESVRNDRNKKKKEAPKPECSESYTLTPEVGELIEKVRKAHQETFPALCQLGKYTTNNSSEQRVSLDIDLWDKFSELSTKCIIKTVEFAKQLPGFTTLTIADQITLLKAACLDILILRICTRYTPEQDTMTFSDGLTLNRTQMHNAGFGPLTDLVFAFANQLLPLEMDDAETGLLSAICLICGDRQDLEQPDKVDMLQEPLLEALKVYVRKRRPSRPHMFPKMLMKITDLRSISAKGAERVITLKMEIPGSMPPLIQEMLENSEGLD

[6] = target: T1, RXRA ΔAB;RARA ΔAB; test: HDX-MS

B1: Socs3 DR0 (dsDNA)
DNA 1: AGGGGTCAAGGTCAAA
DNA 2: TTTGACCTTGACCCCT
Question: With B1 as the binder, how does the Kd [1] read?
Answer: The Kd was 2700 nM.

B2: Rarb2 DR5 TAMRA (dsDNA)
DNA 1: AGGGTTCACCGAAAGTTCACT
DNA 2: AGTGAACTTTCGGTGAACCCT
Question: Which Kd [1] does the source give for B2 here?
Answer: The Kd was 800 nM.

B3: Ramp2 DR1 (dsDNA)
DNA 1: TGAGTTCAAGGGTCAAT
DNA 2: ATTGACCCTTGAACTCA
Question: B3 was tested. Which Kd [1] did it give?
Answer: The Kd was 500 nM.

B4: Rarb2 DR5 (crystal) (dsDNA)
DNA 1: AGGGTTCACCGAAAGTTCACT
DNA 2: AGTGAACTTTCGGTGAACCCT
Question: Does B4 bind [2]?
Answer: Result: binds

B5: HsRXRA DBD (130–212) (domain or fragment, human, UniProt P19793 130-212, looked up)
chain: FTKHICAICGDRSSGKHYGVYSCEGCKGFFKRTVRKDLTYTCRDNKDCLIDKRQRNRCQYCRYQKCLAMGMKREAVQEERQRG
Question: Does B5 bind [3]?
Answer: Result: binds

B6: Hoxb13 DR0 (crystal) (dsDNA)
DNA 1: GAAGGTCAAGGCCAAG
DNA 2: CTTGGCCTTGACCTTC
Question: Does B6 bind [4]?
Answer: Result: binds

B7: F11r DR5 (dsDNA)
DNA 1: AGGGGTCAAGCCAGGTTCACT
DNA 2: AGTGAACCTGGCTTGACCCCT
Question: Does B7 bind [5]?
Answer: Result: binds

B8: Hoxb13 DR0 unlabelled (SAXS, HDX) (dsDNA)
DNA 1: GAAGGTCAAGGCCAAG
DNA 2: CTTGGCCTTGACCTTC
Question: Does B8 bind [6]?
Answer: Result: binds

Question: Does B8 bind [5]?
Answer: Result: binds
